Measurements from the Human Domainome abundance scans (Beltran et al. 2025).

B1: Homeobox protein cut-like 1, residues 941 to 1008; numbered along this chain, P39880 (parent)
chain: QEVDTIELTRQVKEKLAKNGICQRIFGEKVLGLSQGSVSDMLSRPKPWSKLTQKGREPFIRMQLWLNG

Variants of: B1
Experiment: abundance fitness (aPCA) (normalised: wild type 0, dead -1); higher = more abundant; growth selection in yeast, the domain comes from the species named
Conditions: Homo sapiens

Abundance fitness: each site, then its substitutions
K54: P -0.439 | E 0.159 | Q -0.107 | I -0.192 | C -0.317 | G -0.223 | D -0.098 | M -0.263 | R -0.074 | H -0.111 | T -0.101 | F -0.199 | W -0.327 | A 0.011 | Y -0.431 | L -0.174 | N -0.319 | V -0.346
T52: K -0.109 | N -0.009 | P -0.343 | I -0.009 | A -0.033 | F -0.187 | H -0.394 | E -0.343 | C -0.111 | Y -0.143 | S 0.085 | G -0.216 | Q -0.22 | L -0.018 | M -0.157
R56: I -0.6 | K -0.045 | H -0.676 | C -0.525 | N -1.16 | F -0.659 | P -1.06 | Q -0.287 | M -0.238 | L -0.418 | E -1.2 | A -0.479 | D -1.13
L51: P -1.07 | Y -0.474 | V -0.394 | I -0.113 | A -0.723 | Q -0.969 | T -0.745 | G -1.04 | W -0.08 | M -0.125 | R -0.93 | E -0.929 | C -0.439 | S -0.92
W48: A -0.904 | R -0.729 | P -0.999 | N -1.46 | V -0.672 | L -0.398 | F -0.311 | S -0.817 | Q -0.867 | Y -0.78 | G -0.919 | M -0.65 | D -1.08 | H -1.11 | T -1.1 | I -1 | E -0.774
P47: Q -0.068 | C -0.086 | A -0.084 | M -0.12 | R -0.134 | W 0.056 | K -0.029 | L -0.029 | H -0.133 | S -0.086 | N -0.371 | I -0.286 | Y -0.25 | V -0.079 | E -0.067 | G -0.123 | F -0.012 | D -0.158
K50: Q 0.028 | N -0.221 | T -0.059 | V -0.066 | C -0.07 | A -0.098 | L -0.104 | F -0.141 | G -0.194 | D 0.041 | M -0.012 | H -0.184 | E 0.022 | W -0.247 | S -0.04 | Y -0.138
Q53: C 0.012 | W -0.173 | I -0.119 | E -0.139 | Y -0.27 | L -0.082 | R -0.053 | K 0.076 | G -0.132 | H -0.179 | M -0.095 | V -0.095 | S -0.022 | N -0.045 | T -0.014 | F -0.217 | D 0.032 | P 0.031
K46: V -0.112 | Y -0.059 | W -0.285
G55: D 0.084 | E 0.17 | N -0.792 | M -0.018 | V -0.01 | H -0.132 | F 0.042 | P -0.517 | W -0.189 | Y -0.104 | K -0.163 | T -0.162 | A 0.016 | I 0.093 | C -0.17 | L -0.045 | R -0.38 | Q 0.033
S49: E -0.151 | W -0.198 | G -0.133 | V -0.177 | M -0.346 | F -0.19 | C -0.237 | Q -0.169 | K 0.029 | P -0.231 | D -0.241 | T -0.131 | Y -0.255 | H 0.025 | A -0.072 | I -0.43 | R -0.011
